Target: T1, OB-R (Homo sapiens, UniProt P48357)
T1 construct: After confirming via Western that the primary EEC and ESC and endometrial cell lines utilized herein had OB-R; endogenous in cells; host or cells: primary human EEC and ESC; Ishikawa (ECACC 9832301) and HES cell lines
T1 sequence (P48357 22-1165): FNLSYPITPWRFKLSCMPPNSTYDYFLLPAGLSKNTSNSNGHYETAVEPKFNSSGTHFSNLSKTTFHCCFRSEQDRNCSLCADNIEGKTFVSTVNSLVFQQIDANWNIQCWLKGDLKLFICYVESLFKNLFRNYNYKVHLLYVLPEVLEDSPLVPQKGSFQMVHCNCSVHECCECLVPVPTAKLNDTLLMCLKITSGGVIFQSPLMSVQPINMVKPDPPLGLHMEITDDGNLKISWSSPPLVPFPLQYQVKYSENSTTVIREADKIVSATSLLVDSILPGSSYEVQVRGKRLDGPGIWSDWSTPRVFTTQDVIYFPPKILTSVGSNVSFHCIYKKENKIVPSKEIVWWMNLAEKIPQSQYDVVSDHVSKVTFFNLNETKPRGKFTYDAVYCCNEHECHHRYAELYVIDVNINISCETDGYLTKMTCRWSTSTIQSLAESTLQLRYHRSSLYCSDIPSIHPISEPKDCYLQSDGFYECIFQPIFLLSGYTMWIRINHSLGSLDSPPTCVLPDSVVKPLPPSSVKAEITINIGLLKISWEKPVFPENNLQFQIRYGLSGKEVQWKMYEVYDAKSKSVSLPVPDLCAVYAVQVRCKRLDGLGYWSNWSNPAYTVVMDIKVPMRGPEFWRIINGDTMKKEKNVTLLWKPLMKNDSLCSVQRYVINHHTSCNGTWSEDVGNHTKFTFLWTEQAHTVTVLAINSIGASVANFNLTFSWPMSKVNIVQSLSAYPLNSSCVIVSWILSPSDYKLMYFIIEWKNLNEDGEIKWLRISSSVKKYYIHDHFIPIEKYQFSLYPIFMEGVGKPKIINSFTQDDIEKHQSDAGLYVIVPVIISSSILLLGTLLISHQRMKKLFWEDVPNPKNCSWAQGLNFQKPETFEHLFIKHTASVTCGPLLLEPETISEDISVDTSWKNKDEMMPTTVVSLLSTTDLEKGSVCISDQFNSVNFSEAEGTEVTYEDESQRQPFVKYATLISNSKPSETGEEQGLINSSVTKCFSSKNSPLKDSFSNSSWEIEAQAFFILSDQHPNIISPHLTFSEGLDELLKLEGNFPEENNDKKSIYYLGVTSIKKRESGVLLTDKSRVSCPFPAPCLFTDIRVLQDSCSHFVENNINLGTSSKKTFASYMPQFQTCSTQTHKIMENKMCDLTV
Assay: LIF-R levels in human endometrial cells (immunoprecipitation/Western blot)
Assay type: cell-based
Details: for effect on leptin-induced increase of LIF-R levels: leptin 62 nM, peptide 300 nM, 24 h; for leptin-induced expression of LIF-R: leptin 3-62 nM
Description: Primary human endometrial cells (ESC and EEC) were cultured for 5-9 days in DMEM-F12 medium containing 5% fetal bovine serum (FBS), 5 μg/ml insulin, 1% amphopthericin B, 100 μg/ml streptomycin and 100 U/ml penicillin until they were 80% confluent. Two types of endometrial epithelial cell lines, HES (originally derived from a benign proliferative endometrium) and Ishikawa (human endometrial epithelial adenocarcinoma, ECACC 9832301, Wiltshire, England) were cultured under the same conditions described above. The cells were washed twice with 100 mM phosphate saline buffer (PBS), pH 7.2 and cultured for additional 2 days in the same medium but without FBS (basal medium). Cells were washed as described before and cultured in basal medium containing leptin (0, 3, 10 or 62 nM) or IL-1β (0.6, 3 and 10 nM).
The anti-OB-R antibody (10 and 20 μg/ml) and LPA-2, a specific inhibitor of OB-R (3, 120, 300 nM or 30 μM) were used to assess whether leptin-induced effects were regulated primarily by the OB-R. Non-specific species-matched IgGs to the OB-R antibody and a scrambled version of LPA-2 (LPA-2Sc) served as negative controls (Gonzalez and Leavis, Endocrine 21: 185-195 (2003)). Inhibitors of IL-1R were used (monoclonal antibody anti-IL-1R tl and IL-1Ra) to assess whether leptin activated IL-1 induced signaling pathways or just activated similar components responsible for LIF/LIF-R expression. Treatment with the cytokine, inhibitor or the two combined was implemented for 5, 15, 30 and 60 min, and 24 and 48 h. The cells were prepared for Western blot analysis. The conditioned media was collected, lyophilized and stored at −80° C. until analysis for LIF, IL-1β and IL-1Ra by ELISA could be performed. Duplicate wells were run for each treatment and the experiments repeated at least three times with different cell preparations.
Endometrial cells were washed with ice-cold PBS and lysed by homogenization on ice with lysis buffer A [[…] Tris, pH 7.4, containing 137 nM NaCl, 2 mM EDTA, 10% glycerol, 50 mM β-glycerophosphate, 1% Nonidet P-40 and a mixture of proteases and phosphatase inhibitors composed of 100 μM antipain, 0.1 mg/ml trypsin inhibitor, protease inhibitor cocktail 1:50 (Sigma), 50 nM NaF, 2 mM phenyl-methylsulfonyl fluoride, and 2 mM sodium orthovanadate]. Cellular lysates were centrifuged at 2400 g at 4° C. for 10 min. For nuclear lysates the cells were scraped from the culture plates and homogenized with lysis buffer B (10 nM Tris, pH 7.4, 0.25 M sucrose, 0.1 mM EDTA containing the same mixture of protease and phosphatase inhibitors as buffer A). Protein concentrations were determined using the Bradford protein assay (BioRad Laboratories Inc., Hercules, Calif.).
30 μg of protein from nuclear or cellular lysates were incubated in ependorf tubes containing 0.5 μg of primary antibodies (anti-LIF-R, OB-R, STAT3 and p-STAT3 diluted in buffer A) for 2 h at 4° C. under constant stirring. The immuno-complexes were incubated with 20 μl of Protein G-Agarose (Amersham Pharmacia Biotech) diluted 1:1 with buffer A for a 2 additional hours under constant stirring. The beads were centrifuged for 1 min at 1000 g and washed with buffer A containing 0.5 M NaCl followed by a final wash with buffer A.
Cellular lysates and their immunoprecipitates containing 10-30 μg of protein plus Laemmli buffer (1:1) were incubated at 95° C. for 5 min. Electrophoresis was performed at 220 V for 5 min followed by 130 V for 45 min (BioRad, electrophoresis apparatus) on 7.5% (for STAT3, p-STAT3, LIF-R and IL-1R tl) and 10% (for OB-R) SDS-PAGE gels. Nuclear lysates were also used to detect p-STAT3. Electroblotting onto 0.2 μm nitrocellulose membranes was performed at 22 V overnight at 4° C. in 48 nM Tris-39 nM glycine buffer containing 0.037% SDS and 20% methanol. […]

| effect on leptin-induced increase of LIF-R levels (Ishikawa cells) | leptin-induced expression of LIF-R (HES cells) | leptin-induced expression of LIF-R (Ishikawa cells) | leptin-induced expression of LIF-R (primary EEC) | leptin-induced expression of LIF-R (primary ESC) | Substance |
| --- | --- | --- | --- | --- | --- |
| had no effect on LIF-R levels | – | – | – | – | VAEVLNRSDLIQRISFSLDLNNSKLH [LPA-2Sc, scrambled version of LPA-2, negative control, reference compound] |
| – | 1.3-2 fold | 1.5-3 fold | 1.7-8 fold | 1.4-3.2 fold | leptin: human recombinant leptin (R&D Systems), OB-R ligand used as stimulus |
| reduced the leptin-induced increase | – | – | – | – | SRNVIQISNDLENLRDLLHVLAFSKS [LPA-2, 26 amino acid peptide, residues 70-95 of helix III of the human leptin molecule; leptin peptide antagonist] |

Source: patent US8058228B2, “Leptin peptide antagonists” (Boston Biomedical Research Institute, priority 2004, dated 2011)
